We go through six molecules from US20210388110A1 (published 2021).

The assay concerns the target T1, soluble human CD3ε chain (human, UniProt P07766 23-126, limits assumed).
T1 construct: the text says soluble human CD3ε chain; also called human CD3 epsilon chain
In words: SPR (Biacore).

T1 sequence (P07766 23-126 limits assumed): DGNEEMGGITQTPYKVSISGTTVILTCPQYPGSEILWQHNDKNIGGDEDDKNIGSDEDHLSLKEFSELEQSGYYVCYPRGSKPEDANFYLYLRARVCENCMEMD

B1: TR01H067-E22Hh/none-Hi-Kn010G3/L0200-k0 (antibody, human IgG1, kappa, L234A L235A, N297A)
heavy: QVQLVESGGGLVQPGRSLRLSCAASGFTFSNAWMHWVRQAPGKGLEWVAQIKDKSQNYATYYAESVKGRFTISRDDSKNSLYLQMNSLKTEDTAVYYCRYVHYAASYGVDAWGQGTTVTVSSASTKGPSVFPLAPSSKSTSGGTAALGCLVKDYFPEPVTVSWNSGALTSGVHTFPAVLQSSGLYSLSSVVTVPSSSLGTQTYICNVNHKPSNTKVDKKVEPKSCDKTHTCPPCPAPEAAGGPSVFLFPPKPKDTLMISRTPEVTCVVVDVSHEDPEVKFNWYVDGVEVHNAKTKPREEQYASTYRVVSVLTVLHQDWLNGKEYKCKVSNKALPAPIEKTISKAKGQPREPQVYTLPPSRCELTKNQVSLSCAVKGFYPSDIAVEWESNGQPENNYKTTPPVLDSDGSFFLVSKLTVDKSRWQQGNVFSCSVMHEALHNHYTQKSLSLSPDYKDDDDK
chain: EPKSSDKTHTCPPCPAPELLGGPSVFLFPPKPKDTLMISRTPEVTCVVVDVSHEDPEVKFNWYVDGVEVHNAKTKPREEQYNSTYRVVSVLTVLHQDWLNGKEYKCKVSNKALPAPIEKTISKAKGQPREPQVCTLPPSRDELTKNQVSLWCLVKGFYPSDIAVEWESNGQPENNYKTTPPVLDSDGSFFLYSKLTVDKSRWQQGNVFSCSVMHEALHNRYTQKSLSLSP
light: DIVMTQSPLSLPVTPGEPASISCRPSQSPVHSNRNTYLHWYQQKPGQAPRLLIYKVSNRFSGVPDRFSGSGSGTDFTLKISRVEAEDVGVYYCGQGTQVPYTFGQGTKLEIKRTVAAPSVFIFPPSDEQLKSGTASVVCLLNNFYPREAKVQWKVDNALQSGNSQESVTEQDSKDSTYSLSSTLTLSKADYEKHKVYACEVTHQGLSSPVTKSFNRGEC
notes: single-arm
B1 gave a Kd of 60.3 nM.

B2: TR01H067-E22Hh/none-Hi-Kn010G3/L0262-k0 (antibody, human IgG1, kappa, L234A L235A, N297A)
heavy: QVQLVESGGGLVQPGRSLRLSCAASGFTFSNAWMHWVRQAPGKGLEWVAQIKDKSQNYATYYAESVKGRFTISRDDSKNSLYLQMNSLKTEDTAVYYCRYVHYAASYGVDAWGQGTTVTVSSASTKGPSVFPLAPSSKSTSGGTAALGCLVKDYFPEPVTVSWNSGALTSGVHTFPAVLQSSGLYSLSSVVTVPSSSLGTQTYICNVNHKPSNTKVDKKVEPKSCDKTHTCPPCPAPEAAGGPSVFLFPPKPKDTLMISRTPEVTCVVVDVSHEDPEVKFNWYVDGVEVHNAKTKPREEQYASTYRVVSVLTVLHQDWLNGKEYKCKVSNKALPAPIEKTISKAKGQPREPQVYTLPPSRCELTKNQVSLSCAVKGFYPSDIAVEWESNGQPENNYKTTPPVLDSDGSFFLVSKLTVDKSRWQQGNVFSCSVMHEALHNHYTQKSLSLSPDYKDDDDK
chain: EPKSSDKTHTCPPCPAPELLGGPSVFLFPPKPKDTLMISRTPEVTCVVVDVSHEDPEVKFNWYVDGVEVHNAKTKPREEQYNSTYRVVSVLTVLHQDWLNGKEYKCKVSNKALPAPIEKTISKAKGQPREPQVCTLPPSRDELTKNQVSLWCLVKGFYPSDIAVEWESNGQPENNYKTTPPVLDSDGSFFLYSKLTVDKSRWQQGNVFSCSVMHEALHNRYTQKSLSLSP
light: DIVMTQSPLSLPVTPGEPASISCRSSQPPVHSNRNTYLHWYQQKPGQAPRLLIYKVSNRFSGVPDRFSGSGSGTDFTLKISRVEAEDVGVYYCAQGTQVPYTFGQGTKLEIKRTVAAPSVFIFPPSDEQLKSGTASVVCLLNNFYPREAKVQWKVDNALQSGNSQESVTEQDSKDSTYSLSSTLTLSKADYEKHKVYACEVTHQGLSSPVTKSFNRGEC
notes: single-arm
Take B2: binding was characterised by a dissociation constant (Kd) of 49.2 nM.

B3: TR01H067-E22Hh/none-Hi-Kn010G3/L0201-k0 (antibody, human IgG1, kappa, L234A L235A, N297A)
heavy: QVQLVESGGGLVQPGRSLRLSCAASGFTFSNAWMHWVRQAPGKGLEWVAQIKDKSQNYATYYAESVKGRFTISRDDSKNSLYLQMNSLKTEDTAVYYCRYVHYAASYGVDAWGQGTTVTVSSASTKGPSVFPLAPSSKSTSGGTAALGCLVKDYFPEPVTVSWNSGALTSGVHTFPAVLQSSGLYSLSSVVTVPSSSLGTQTYICNVNHKPSNTKVDKKVEPKSCDKTHTCPPCPAPEAAGGPSVFLFPPKPKDTLMISRTPEVTCVVVDVSHEDPEVKFNWYVDGVEVHNAKTKPREEQYASTYRVVSVLTVLHQDWLNGKEYKCKVSNKALPAPIEKTISKAKGQPREPQVYTLPPSRCELTKNQVSLSCAVKGFYPSDIAVEWESNGQPENNYKTTPPVLDSDGSFFLVSKLTVDKSRWQQGNVFSCSVMHEALHNHYTQKSLSLSPDYKDDDDK
chain: EPKSSDKTHTCPPCPAPELLGGPSVFLFPPKPKDTLMISRTPEVTCVVVDVSHEDPEVKFNWYVDGVEVHNAKTKPREEQYNSTYRVVSVLTVLHQDWLNGKEYKCKVSNKALPAPIEKTISKAKGQPREPQVCTLPPSRDELTKNQVSLWCLVKGFYPSDIAVEWESNGQPENNYKTTPPVLDSDGSFFLYSKLTVDKSRWQQGNVFSCSVMHEALHNRYTQKSLSLSP
light: DIVMTQSPLSLPVTPGEPASISCRSSQPPVHSNRNTYLHWYQQKPGQAPRLLIYKVSNRFSGVPDRFSGSGSGTDFTLKISRVEAEDVGVYYCGQGTQVPYTFGQGTKLEIKRTVAAPSVFIFPPSDEQLKSGTASVVCLLNNFYPREAKVQWKVDNALQSGNSQESVTEQDSKDSTYSLSSTLTLSKADYEKHKVYACEVTHQGLSSPVTKSFNRGEC
notes: single-arm
B3: the Kd was determined as 59.3 nM.

B4: TR01H067-E22Hh/none-Hi-Kn010G3/L0203-k0 (antibody, human IgG1, kappa, L234A L235A, N297A)
heavy: QVQLVESGGGLVQPGRSLRLSCAASGFTFSNAWMHWVRQAPGKGLEWVAQIKDKSQNYATYYAESVKGRFTISRDDSKNSLYLQMNSLKTEDTAVYYCRYVHYAASYGVDAWGQGTTVTVSSASTKGPSVFPLAPSSKSTSGGTAALGCLVKDYFPEPVTVSWNSGALTSGVHTFPAVLQSSGLYSLSSVVTVPSSSLGTQTYICNVNHKPSNTKVDKKVEPKSCDKTHTCPPCPAPEAAGGPSVFLFPPKPKDTLMISRTPEVTCVVVDVSHEDPEVKFNWYVDGVEVHNAKTKPREEQYASTYRVVSVLTVLHQDWLNGKEYKCKVSNKALPAPIEKTISKAKGQPREPQVYTLPPSRCELTKNQVSLSCAVKGFYPSDIAVEWESNGQPENNYKTTPPVLDSDGSFFLVSKLTVDKSRWQQGNVFSCSVMHEALHNHYTQKSLSLSPDYKDDDDK
chain: EPKSSDKTHTCPPCPAPELLGGPSVFLFPPKPKDTLMISRTPEVTCVVVDVSHEDPEVKFNWYVDGVEVHNAKTKPREEQYNSTYRVVSVLTVLHQDWLNGKEYKCKVSNKALPAPIEKTISKAKGQPREPQVCTLPPSRDELTKNQVSLWCLVKGFYPSDIAVEWESNGQPENNYKTTPPVLDSDGSFFLYSKLTVDKSRWQQGNVFSCSVMHEALHNRYTQKSLSLSP
light: DIVMTQSPLSLPVTPGEPASISCRSSQSPVHSNRNTYIHWYQQKPGQAPRLLIYKVSNRFSGVPDRFSGSGSGTDFTLKISRVEAEDVGVYYCGQGTQVPYTFGQGTKLEIKRTVAAPSVFIFPPSDEQLKSGTASVVCLLNNFYPREAKVQWKVDNALQSGNSQESVTEQDSKDSTYSLSSTLTLSKADYEKHKVYACEVTHQGLSSPVTKSFNRGEC
notes: single-arm
The molecule B4 yielded a dissociation constant (Kd) of 47.9 nM.

B5: TR01H067-E22Hh/none-Hi-Kn010G3/TR01L016-k0 (antibody, human IgG1, kappa, L234A L235A, N297A)
heavy: QVQLVESGGGLVQPGRSLRLSCAASGFTFSNAWMHWVRQAPGKGLEWVAQIKDKSQNYATYYAESVKGRFTISRDDSKNSLYLQMNSLKTEDTAVYYCRYVHYAASYGVDAWGQGTTVTVSSASTKGPSVFPLAPSSKSTSGGTAALGCLVKDYFPEPVTVSWNSGALTSGVHTFPAVLQSSGLYSLSSVVTVPSSSLGTQTYICNVNHKPSNTKVDKKVEPKSCDKTHTCPPCPAPEAAGGPSVFLFPPKPKDTLMISRTPEVTCVVVDVSHEDPEVKFNWYVDGVEVHNAKTKPREEQYASTYRVVSVLTVLHQDWLNGKEYKCKVSNKALPAPIEKTISKAKGQPREPQVYTLPPSRCELTKNQVSLSCAVKGFYPSDIAVEWESNGQPENNYKTTPPVLDSDGSFFLVSKLTVDKSRWQQGNVFSCSVMHEALHNHYTQKSLSLSPDYKDDDDK
chain: EPKSSDKTHTCPPCPAPELLGGPSVFLFPPKPKDTLMISRTPEVTCVVVDVSHEDPEVKFNWYVDGVEVHNAKTKPREEQYNSTYRVVSVLTVLHQDWLNGKEYKCKVSNKALPAPIEKTISKAKGQPREPQVCTLPPSRDELTKNQVSLWCLVKGFYPSDIAVEWESNGQPENNYKTTPPVLDSDGSFFLYSKLTVDKSRWQQGNVFSCSVMHEALHNRYTQKSLSLSP
light: DIVMTQSPLSLPVTPGEPASISCRSSQSPVHSNRNTYLHWYLQKPGQSPQLLIYKVSNRFSGVPDRFSGSGSGTDFTLKISRVEAEDVGVYYCYQGTQVPYTFGQGTKLEIKRTVAAPSVFIFPPSDEQLKSGTASVVCLLNNFYPREAKVQWKVDNALQSGNSQESVTEQDSKDSTYSLSSTLTLSKADYEKHKVYACEVTHQGLSSPVTKSFNRGEC
notes: single-arm
B5: the Kd turned out to be 10.9 nM.

B6: TR01H067-E22Hh/none-Hi-Kn010G3/L0212-k0 (antibody, human IgG1, kappa, L234A L235A, N297A)
heavy: QVQLVESGGGLVQPGRSLRLSCAASGFTFSNAWMHWVRQAPGKGLEWVAQIKDKSQNYATYYAESVKGRFTISRDDSKNSLYLQMNSLKTEDTAVYYCRYVHYAASYGVDAWGQGTTVTVSSASTKGPSVFPLAPSSKSTSGGTAALGCLVKDYFPEPVTVSWNSGALTSGVHTFPAVLQSSGLYSLSSVVTVPSSSLGTQTYICNVNHKPSNTKVDKKVEPKSCDKTHTCPPCPAPEAAGGPSVFLFPPKPKDTLMISRTPEVTCVVVDVSHEDPEVKFNWYVDGVEVHNAKTKPREEQYASTYRVVSVLTVLHQDWLNGKEYKCKVSNKALPAPIEKTISKAKGQPREPQVYTLPPSRCELTKNQVSLSCAVKGFYPSDIAVEWESNGQPENNYKTTPPVLDSDGSFFLVSKLTVDKSRWQQGNVFSCSVMHEALHNHYTQKSLSLSPDYKDDDDK
chain: EPKSSDKTHTCPPCPAPELLGGPSVFLFPPKPKDTLMISRTPEVTCVVVDVSHEDPEVKFNWYVDGVEVHNAKTKPREEQYNSTYRVVSVLTVLHQDWLNGKEYKCKVSNKALPAPIEKTISKAKGQPREPQVCTLPPSRDELTKNQVSLWCLVKGFYPSDIAVEWESNGQPENNYKTTPPVLDSDGSFFLYSKLTVDKSRWQQGNVFSCSVMHEALHNRYTQKSLSLSP
light: DIVMTQSPLSLPVTPGEPASISCRPSQSPVHSNRNTYLHWYQQKPGQAPRLLIYKVSNRFSGVPDRFSGSGSGTDFTLKISRVEAEDVGVYYCYQGTQVPYTFGQGTKLEIKRTVAAPSVFIFPPSDEQLKSGTASVVCLLNNFYPREAKVQWKVDNALQSGNSQESVTEQDSKDSTYSLSSTLTLSKADYEKHKVYACEVTHQGLSSPVTKSFNRGEC
notes: single-arm
Consider B6, for which the Kd came out at 5.88 nM. This Kd lies about 1.9-fold lower than the previous one.
